In US20240209100A1 (DIAGONAL THERAPEUTICS, published 2024):

T1: IL-18 receptor (IL-18Rα/IL-18Rβ) overexpressed on HEK-Blue IL-18 cells (Homo sapiens (Human), UniProt Q13478 19-541; O95256 20-599)
T1 sequence 1: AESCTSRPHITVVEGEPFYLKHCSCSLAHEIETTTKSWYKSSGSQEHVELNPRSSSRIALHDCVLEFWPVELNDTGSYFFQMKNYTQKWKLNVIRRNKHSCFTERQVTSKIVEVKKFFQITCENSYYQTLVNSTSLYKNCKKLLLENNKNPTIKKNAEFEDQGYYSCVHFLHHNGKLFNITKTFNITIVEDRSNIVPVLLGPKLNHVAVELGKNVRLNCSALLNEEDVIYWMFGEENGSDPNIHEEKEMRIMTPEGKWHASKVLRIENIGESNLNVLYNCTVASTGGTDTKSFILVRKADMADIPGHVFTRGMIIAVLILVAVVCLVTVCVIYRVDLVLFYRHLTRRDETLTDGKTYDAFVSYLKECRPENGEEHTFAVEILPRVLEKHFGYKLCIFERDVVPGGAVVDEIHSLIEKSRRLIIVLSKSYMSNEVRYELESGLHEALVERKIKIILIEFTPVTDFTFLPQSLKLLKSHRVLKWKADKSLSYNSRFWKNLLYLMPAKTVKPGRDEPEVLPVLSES
T1 sequence 2: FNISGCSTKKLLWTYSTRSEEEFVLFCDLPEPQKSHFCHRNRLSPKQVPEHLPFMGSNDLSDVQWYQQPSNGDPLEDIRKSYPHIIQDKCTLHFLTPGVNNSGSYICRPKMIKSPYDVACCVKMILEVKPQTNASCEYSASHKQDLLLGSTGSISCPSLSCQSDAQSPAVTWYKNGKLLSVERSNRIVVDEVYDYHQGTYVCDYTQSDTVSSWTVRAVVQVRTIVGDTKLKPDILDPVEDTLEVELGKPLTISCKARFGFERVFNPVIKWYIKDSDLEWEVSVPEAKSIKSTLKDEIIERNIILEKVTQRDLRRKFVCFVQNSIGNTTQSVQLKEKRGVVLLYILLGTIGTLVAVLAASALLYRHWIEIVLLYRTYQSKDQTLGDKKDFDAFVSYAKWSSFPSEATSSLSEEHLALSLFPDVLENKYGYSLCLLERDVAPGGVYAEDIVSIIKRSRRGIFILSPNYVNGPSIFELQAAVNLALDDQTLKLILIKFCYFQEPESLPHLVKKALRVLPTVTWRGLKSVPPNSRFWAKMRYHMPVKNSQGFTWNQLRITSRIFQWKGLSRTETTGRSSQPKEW


The binders below were run against T1, IL-18 receptor (IL-18Rα/IL-18Rβ) … (assay: cell-based or functional assay).

| Binder | HEK-Blue IL-18: Abs 405 at 100 nM [Abs] | HEK-Blue IL-18: Fold over Background [fold] |
| --- | --- | --- |
| DGL214 (bispecific antibody) heavy 1: QVQLVESGGGLVQAGGSLRLSCAASGRTFSKHAMGWFRQAPGKEREFVAAIDWSGGSTYYADSVKGRFTISRDNAKNTVYLQMDSLKPEDTAVYYCAADSYTDYAQLWLPELESEYDYWGQGTLVTVSSDKTHTCPPCPAPEAAGAPSVFLFPPKPKDTLMISRTPEVTCVVVDVSHEDPEVKFNWYVDGVEVHNAKTKPREEQYNSTYRVVSVLTVLHQDWLNGKEYKCKVSNKALPAPIEKTISKAKGQPREPQVCTLPPSRDELTKNQVSLSCAVKGFYPSDIAVEWESNGQPENNYKTTPPVLDSDGSFFLVSKLTVDKSRWQQGNVFSCSVMHEALHNHYTQKSLSLSPGWSHPQFEK heavy 2: not shown | 1.1 | 4.7 |
| DGL213 (bispecific antibody) heavy 1: QVQLVESGGGLVQAGGSLRLSCAASGRTFSKHAMGWFRQAPGKEREFVAAIDWSGGSTYYADSVKGRFTISRDNAKNTVYLQMDSLKPEDTAVYYCAADSYTDYAQLWLPELESEYDYWGQGTLVTVSSDKTHTCPPCPAPEAAGAPSVFLFPPKPKDTLMISRTPEVTCVVVDVSHEDPEVKFNWYVDGVEVHNAKTKPREEQYNSTYRVVSVLTVLHQDWLNGKEYKCKVSNKALPAPIEKTISKAKGQPREPQVCTLPPSRDELTKNQVSLSCAVKGFYPSDIAVEWESNGQPENNYKTTPPVLDSDGSFFLVSKLTVDKSRWQQGNVFSCSVMHEALHNHYTQKSLSLSPGWSHPQFEK heavy 2: QLQLVESGGGLVQAGGSLRLSCAASRSITFSHNVMGWYRQAPGKQRELVASIGSGGSTNYVDSVKGRATISRDNAKKTVYLQMNSLKPEDTAVYYCGVVVGVYRGSLGQGTLVTVSSCPPCPAPEAAGAPSVFLFPPKPKDTLMISRTPEVTCVVVDVSHEDPEVKFNWYVDGVEVHNAKTKPREEQYNSTYRVVSVLTVLHQDWLNGKEYKCKVSNKALPAPIEKTISKAKGQPREPQVYTLPPCRDELTKNQVSLWCLVKGFYPSDIAVEWESNGQPENNYKTTPPVLDSDGSFFLYSKLTVDKSRWQQGNVFSCSVMHEALHNHYTQKSLSLSPGEPEA | 1.5 | 6.4 |
| DGL211 (bispecific antibody) heavy 1: QVQLVESGGGLVQAGGSLRLSCAASGRTFSKHAMGWFRQAPGKEREFVAAIDWSGGSTYYADSVKGRFTISRDNAKNTVYLQMDSLKPEDTAVYYCAADSYTDYAQLWLPELESEYDYWGQGTLVTVSSEKSYGPPCPPCPAPEAAGAPSVFLFPPKPKDTLMISRTPEVTCVVVDVSHEDPEVKFNWYVDGVEVHNAKTKPREEQYNSTYRVVSVLTVLHQDWLNGKEYKCKVSNKALPAPIEKTISKAKGQPREPQVCTLPPSRDELTKNQVSLSCAVKGFYPSDIAVEWESNGQPENNYKTTPPVLDSDGSFFLVSKLTVDKSRWQQGNVFSCSVMHEALHNHYTQKSLSLSPGWSHPQFEK heavy 2: QLQLVESGGGLVQAGGSLRLSCAASRSITFSHNVMGWYRQAPGKQRELVASIGSGGSTNYVDSVKGRATISRDNAKKTVYLQMNSLKPEDTAVYYCGVVVGVYRGSLGQGTLVTVSSEKSYGPPCPPCPAPEAAGAPSVFLFPPKPKDTLMISRTPEVTCVVVDVSHEDPEVKFNWYVDGVEVHNAKTKPREEQYNSTYRVVSVLTVLHQDWLNGKEYKCKVSNKALPAPIEKTISKAKGQPREPQVYTLPPCRDELTKNQVSLWCLVKGFYPSDIAVEWESNGQPENNYKTTPPVLDSDGSFFLYSKLTVDKSRWQQGNVFSCSVMHEALHNHYTQKSLSLSPGEPEA | 1.5 | 6.7 |
| DGL217 (bispecific antibody) heavy 1: QVQLVESGGGLVQAGGSLRLSCAASGRTFSKHAMGWFRQAPGKEREFVAAIDWSGGSTYYADSVKGRFTISRDNAKNTVYLQMDSLKPEDTAVYYCAADSYTDYAQLWLPELESEYDYWGQGTLVTVSSDKTHTCPPCPAPEAAGAPSVFLFPPKPKDTLMISRTPEVTCVVVDVSHEDPEVKFNWYVDGVEVHNAKTKPREEQYNSTYRVVSVLTVLHQDWLNGKEYKCKVSNKALPAPIEKTISKAKGQPREPQVCTLPPSRDELTKNQVSLSCAVKGFYPSDIAVEWESNGQPENNYKTTPPVLDSDGSFFLVSKLTVDKSRWQQGNVFSCSVMHEALHNHYTQKSLSLSPGWSHPQFEK heavy 2: QLQLVESGGGLVQAGGSLRLSCAASRSITFSHNVMGWYRQAPGKQRELVASIGSGGSTNYVDSVKGRATISRDNAKKTVYLQMNSLKPEDTAVYYCGVVVGVYRGSLGQGTLVTVSSEKSYGPPCPPCPAPEAAGAPSVFLFPPKPKDTLMISRTPEVTCVVVDVSHEDPEVKFNWYVDGVEVHNAKTKPREEQYNSTYRVVSVLTVLHQDWLNGKEYKCKVSNKALPAPIEKTISKAKGQPREPQVYTLPPCRDELTKNQVSLWCLVKGFYPSDIAVEWESNGQPENNYKTTPPVLDSDGSFFLYSKLTVDKSRWQQGNVFSCSVMHEALHNHYTQKSLSLSPGEPEA | 1.3 | 5.6 |

The next lines start with the values.

| HEK-Blue IL-18: Abs 405 at 100 nM [Abs] | HEK-Blue IL-18: Fold over Background [fold] | Binder |
| --- | --- | --- |
| 1.4 | 6.2 | DGL212 (bispecific antibody) heavy 1: QVQLVESGGGLVQAGGSLRLSCAASGRTFSKHAMGWFRQAPGKEREFVAAIDWSGGSTYYADSVKGRFTISRDNAKNTVYLQMDSLKPEDTAVYYCAADSYTDYAQLWLPELESEYDYWGQGTLVTVSSDKTHTCPPCPAPEAAGAPSVFLFPPKPKDTLMISRTPEVTCVVVDVSHEDPEVKFNWYVDGVEVHNAKTKPREEQYNSTYRVVSVLTVLHQDWLNGKEYKCKVSNKALPAPIEKTISKAKGQPREPQVCTLPPSRDELTKNQVSLSCAVKGFYPSDIAVEWESNGQPENNYKTTPPVLDSDGSFFLVSKLTVDKSRWQQGNVFSCSVMHEALHNHYTQKSLSLSPGWSHPQFEK heavy 2: not shown |
| 0.8 | 3.4 | DGL216 (bispecific antibody) heavy 1: QVQLVESGGGLVQAGGSLRLSCAASGRTFSKHAMGWFRQAPGKEREFVAAIDWSGGSTYYADSVKGRFTISRDNAKNTVYLQMDSLKPEDTAVYYCAADSYTDYAQLWLPELESEYDYWGQGTLVTVSSDKTHTCPPCPAPEAAGAPSVFLFPPKPKDTLMISRTPEVTCVVVDVSHEDPEVKFNWYVDGVEVHNAKTKPREEQYNSTYRVVSVLTVLHQDWLNGKEYKCKVSNKALPAPIEKTISKAKGQPREPQVCTLPPSRDELTKNQVSLSCAVKGFYPSDIAVEWESNGQPENNYKTTPPVLDSDGSFFLVSKLTVDKSRWQQGNVFSCSVMHEALHNHYTQKSLSLSPGWSHPQFEK heavy 2: QLQLVESGGGLVQAGGSLRLSCAASRSITFSHNVMGWYRQAPGKQRELVASIGSGGSTNYVDSVKGRATISRDNAKKTVYLQMNSLKPEDTAVYYCGVVVGVYRGSLGQGTLVTVSSGGGGSGGGGSGGGGSGGGGSCPPCPAPEAAGAPSVFLFPPKPKDTLMISRTPEVTCVVVDVSHEDPEVKFNWYVDGVEVHNAKTKPREEQYNSTYRVVSVLTVLHQDWLNGKEYKCKVSNKALPAPIEKTISKAKGQPREPQVYTLPPCRDELTKNQVSLWCLVKGFYPSDIAVEWESNGQPENNYKTTPPVLDSDGSFFLYSKLTVDKSRWQQGNVFSCSVMHEALHNHYTQKSLSLSPGEPEA |
| 1.4 | 6.1 | DGL215 (bispecific antibody) heavy 1: QVQLVESGGGLVQAGGSLRLSCAASGRTFSKHAMGWFRQAPGKEREFVAAIDWSGGSTYYADSVKGRFTISRDNAKNTVYLQMDSLKPEDTAVYYCAADSYTDYAQLWLPELESEYDYWGQGTLVTVSSDKTHTCPPCPAPEAAGAPSVFLFPPKPKDTLMISRTPEVTCVVVDVSHEDPEVKFNWYVDGVEVHNAKTKPREEQYNSTYRVVSVLTVLHQDWLNGKEYKCKVSNKALPAPIEKTISKAKGQPREPQVCTLPPSRDELTKNQVSLSCAVKGFYPSDIAVEWESNGQPENNYKTTPPVLDSDGSFFLVSKLTVDKSRWQQGNVFSCSVMHEALHNHYTQKSLSLSPGWSHPQFEK heavy 2: QLQLVESGGGLVQAGGSLRLSCAASRSITFSHNVMGWYRQAPGKQRELVASIGSGGSTNYVDSVKGRATISRDNAKKTVYLQMNSLKPEDTAVYYCGVVVGVYRGSLGQGTLVTVSSPLAPCPPCPAPEAAGAPSVFLFPPKPKDTLMISRTPEVTCVVVDVSHEDPEVKFNWYVDGVEVHNAKTKPREEQYNSTYRVVSVLTVLHQDWLNGKEYKCKVSNKALPAPIEKTISKAKGQPREPQVYTLPPCRDELTKNQVSLWCLVKGFYPSDIAVEWESNGQPENNYKTTPPVLDSDGSFFLYSKLTVDKSRWQQGNVFSCSVMHEALHNHYTQKSLSLSPGEPEA |
| 1.3 | 5.5 | DGL218 (bispecific antibody) heavy 1: QVQLVESGGGLVQAGGSLRLSCAASGRTFSKHAMGWFRQAPGKEREFVAAIDWSGGSTYYADSVKGRFTISRDNAKNTVYLQMDSLKPEDTAVYYCAADSYTDYAQLWLPELESEYDYWGQGTLVTVSSCPPCPAPEAAGAPSVFLFPPKPKDTLMISRTPEVTCVVVDVSHEDPEVKFNWYVDGVEVHNAKTKPREEQYNSTYRVVSVLTVLHQDWLNGKEYKCKVSNKALPAPIEKTISKAKGQPREPQVCTLPPSRDELTKNQVSLSCAVKGFYPSDIAVEWESNGQPENNYKTTPPVLDSDGSFFLVSKLTVDKSRWQQGNVFSCSVMHEALHNHYTQKSLSLSPGWSHPQFEK heavy 2: not shown |
